In general, koff refers to the first-order rate constant of dissociation. High values mean a short-lived complex, low ones a long-lived complex. A word on the Kd: it is the constant that tells how readily two partners part at equilibrium. High values mean lower affinity, low ones higher affinity.

B2: soluble BCMA (B-cell maturation antigen) (receptor)
chain: MLQMAGQCSQNEYFDSLLHACIPCQLRCSSNTPPLTCQRYCNASVTNSVKGTNA

Test in all cases: SPR
Assay [1] deals with B2.
The target in assay [2] is B2.
Assay [3] addresses bb2121 (C11D5.3).

B1: APRIL (a proliferating ligand), IgG2a Fc conjugated binder (Fc fusion)
chain: SVLHLVPINATSKDDSDVTEVMWQPALRRGRGLQAQGYGVRIQDAGVYLLYSQVLFQDVTFTMGQVVSREGQGRQETLFRCIRSMPSHPDRAYNSCYSAGVFHLHQGDILSVIIPRARAKLNLSPHGTFLGFVKL
In assay [1], B1 displayed a koff of 0.00393 s⁻¹. Moreover, the Kd in assay [2] was 3.7 nM.
In assay [3], B2 came in with a Kd of 0.328 nM and an off-rate (koff) of 0.00155 s⁻¹.

Source of the values: publication PMC10314698 (2023).
